Earlier results, collected in article PMC4409539 (Cancer gene therapy, 2015).

Columns and labels:
[1] = tested on: pancreatic tumor cells; details: pancreatic tumor cells infected at 25 pfu/cell with bCD
[2] = yCD versus bCD

| Molecule | 5-FC conversion [1] [pmol/min/mg] | Km for 5-FC, fold lower than bCD [2] [fold] | thermal stability compared with bCD [2] |
| --- | --- | --- | --- |
| bacterial cytosine deaminase [bCD] | 0.2 to 0.7 |  |  |
| yeast cytosine deaminase (protein, UniProt Q12178 1-158, looked up) Cytosine deaminase: MVTGGMASKWDQKGMDIAYEEAALGYKEGGVPIGGCLINNKDGSVLGRGHNMRFQKGSATLHGEISTLENCGRLEGKVYKDTTLYTTLSPCDMCTGAIIMYGIPRCVVGENVNFKSKGEKYLQTRGHEVVVVDDERCKKIMKQFIDERPQDWFEDIGE |  | 22 | more thermolabile than bCD |
